Laboratory results taken from paper PMC11148139.
Like-named read-outs stand apart in the source and are kept apart here.

For “GCH1 (GTP cyclohydrolase I): S81D phosphomimetic”, the other (phosphorylation at S81) was “increases”.
With LDHA (lactate dehydrogenase A): C293A the enzymatic_activity (other: S-nitrosylation at C293) was “decreases”.
For LDHA (lactate dehydrogenase A): C163A, the enzymatic_activity (other: S-nitrosylation at C163) was “decreases”.
With “LDHA (lactate dehydrogenase A): C163A/C293A (2C-A)” the localisation_or_trafficking (other: S-nitrosylation at C163) was “decreases” and the localisation_or_trafficking (other: S-nitrosylation at C293) was “decreases”.
